± gives the standard deviation of the averaged measurements.
B1: library; a variant is named by its letters at N, in order (parent)
chain: AATGTTGTTGATGCAACCATAAAGTGATATTTAATAATTATTTATAATCAGCAACTTAACCACAAAACAACCATATATTGATATNTCACAAAACAACCATAANTTGATATTTTTGTGAATCGAGTATTTCAGCAAAACTACTGCAGTAAGAA

Legend:
[1] = variants of: B1; test: relative integration efficiency (T-LR orientation) vs wild-type transposon end (log2 (normalized fold change)); transposon end mutated: left end; higher = more efficient transposition; conditions: with VchCAST RNA-guided transposition machinery (E. coli BL21(DE3) host, lacZ target)
Summary of the method: (§1)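 Barcode abundances in input plasmids and in genomic integration junctions were obtained by PCR amplification and Illumina sequencing. These came from E. coli BL21(DE3) co-transformed with a T7-driven effector plasmid and a pUC57 donor carrying 1549 left-end or 1849 right-end transposon variants, then plated with 0.1 mM IPTG at 37°C for 18 h. Relative integration efficiency is the output/input fold change, normalised to reference barcodes and log-transformed.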

[2] = variants of: B1; test: relative integration efficiency (T-RL orientation) vs wild-type transposon end (log2 (normalized fold change)); transposon end mutated: left end; higher = more efficient transposition; conditions: with VchCAST RNA-guided transposition machinery (E. coli BL21(DE3) host, lacZ target)
Summary of the method: as §1

Variant | relative integration efficiency (log2) [1] | relative integration efficiency (log2) [2]
AATGTTGTTGATGCAACCATAAAGTGATATTTAATAATTATTTATAATCAGCAACTTAACCACAAAACAACCATATATTGATATCTCTGTTAACAACCATAAGTTGATATTTTTGTGAATCGAGTATTTCAGCAAAACTACTGCAGTAAGAA [CG A88T C89G A90T A91T] | -0.283 ± 0.86 | -0.432 ± 0.33
AATGTTGTTGATGCAACCATAAAGTGATATTTAATAATTATTTATAATCAGCAACTTAACCACAAAACAACCATATATTGATATCTCACAAAACAACCATAAGTTGTTATTTTTGTGAATCGAGTATTTCAGCAAAACTACTGCAGTAAGAA [CG A107T] | -0.794 ± 0.79 | -0.795 ± 0.44
AATGTTGTTGATGCACCCATAAATTGATATTGCATAATTATTTATAATCAGCAACTTAACCACAAAACAACCATAAAGTGATATTTAACAAAACAACCATAAAGTGATATTTATGTGAATCGAGTATTTCAGCAAAACTACTGCAGTAAGAA [TA A16C G24T T32G A33C T76A T78G C87A T104G T113A] | -0.174 ± 1.1 | -0.675 ± 0.24
AATGTTGTTGATGCAACCATAAAGTGATATTTAATAATTATTTATAATCAGCATGTTAACCACAAAACAACCATATATTGATATCTCACAAAACAACCATAAGTTGATATTTTTGTGAATCGAGTATTTCAGCAAAACTACTGCAGTAAGAA [CG A54T C55G] | 0.202 ± 0.2 | -0.316 ± 0.29
AATGTTGTTGATGGAACCATAAAGTGATATTTAATAATTATTTATAATCAGCAACTTAACCACAAAAGAACCATATATTGATATCTCACAAAAGAACCATAAGTTGATATTTTTGTGAATCGAGTATTTCAGCAAAACTACTGCAGTAAGAA [CG C14G C68G C94G] | -2.2 ± 0.43 | -2.49 ± 1.3
AATGTTGTTGATGCAACCATAACTTGATATTTAATAATTATTTATAATCAGCAACTTAACCACAAAACAACCATATCGTGATATCTCACAAAACAACCATAATGTGATATTTTTGTGAATCGAGTATTTCAGCAAAACTACTGCAGTAAGAA [CT A23C G24T A77C T78G T104G] | -0.239 ± 0.088 | -0.527 ± 0.28
AATGTTGTTGATGCAACCATAAAGTGATATTTAATAATTATTTATAATCAGCAACTTAACCACAAAACAACCATATATTGATATCTCACAAAACAACCATCCTGTGATATTTTTGTGAATCGAGTATTTCAGCAAAACTACTGCAGTAAGAA [CT A101C A102C T104G] | -2.08 ± 1.2 | -1.96 ± 0.64
AATGTTGTTGATGCAACCATAAAGTGATATTTAATAATTATTTATAATCAGCAACTTAACCACAAAACAACCATATATTGATATCTCACACAACAACCATAAGTTGATATTTTTGTGAATCGAGTATTTCAGCAAAACTACTGCAGTAAGAA [CG A91C] | -0.299 ± 1.1 | -0.278 ± 0.17
AATGTTGTTGATGCAACCATAAGTTGATATTTTATAATTATTTATAATCAGCAACTTAACCACAAAACAACCATAAGTTGATATTTTACAAAACACCCATAAATTGATATTGCTGTGAATCGAGTATTTCAGCAAAACTACTGCAGTAAGAA [TA A23G G24T A33T T76A A77G C87T A96C T112G T113C] | -0.402 ± 0.62 | -0.2 ± 0.18
AATGTTGTTGATGCAACCATAAAGTGATATTTAATAATTATTTATAATCAGCAACTTACAACCAAAACAACCATATATTGATATCTCACAAAACAACCATAAGTTGATATTTTTGTGAATCGAGTATTTCAGCAAAACTACTGCAGTAAGAA [CG A59C C60A C61A A62C] | 0.009 ± 0.11 | 0.0247 ± 0.0075
AATGTTGTTGATGCAACCATAAAGTGATATTTAATAATTATTTATAATCAGCAACTTAACCACAAAAGAACCATATATTGATATCTCACAAAACAACCATAAGTTGATATTTTTGTGAATCGAGTATTTCAGCAAAACTACTGCAGTAAGAA [CG C68G] | -0.736 ± 0.69 | -0.831 ± 0.36
AATGTTGTTGATGCAACCATAAAGTGATATTTAATAATTATTTATAATCAGCAACTTAACCACAATTGTACCATATATTGATATCTCACAAAACAACCATAAGTTGATATTTTTGTGAATCGAGTATTTCAGCAAAACTACTGCAGTAAGAA [CG A66T A67T C68G A69T] | -1 ± 0.9 | -0.447 ± 0.35
AATGTTGTTGATGCACCCATAAATTGATAATTAATAATTATTTATAATCAGCAACTTAACCACAAAACAACCATAAAGTGATATTTAACAAAACAACCATAAAATGATAATTATGTGAATCGAGTATTTCAGCAAAACTACTGCAGTAAGAA [TA A16C G24T T30A T76A T78G C87A T104A T110A T113A] | -0.00394 ± 0.69 | -0.0421 ± 0.16
AATGTTGTTGATGCAACCATAAAGTGATATTTAATAATTATTTATAATCAGCAACTTAACCACAAAACAACCATATATTGATATCTTACAAAACAACCATAAGTTGATATTTTTGTGAATCGAGTATTTCAGCAAAACTACTGCAGTAAGAA [CG C87T] | -0.29 ± 0.12 | -0.0232 ± 0.071
AATGTTGTTGATGCACCCATAAATTGATAATTAATAATTATTTATAATCAGCAACTTAACCACAAAACAACCATAAAGTGATATTTAACAAAACACCCATAAATTGATATTGCTGTGAATCGAGTATTTCAGCAAAACTACTGCAGTAAGAA [TA A16C G24T T30A T76A T78G C87A A96C T112G T113C] | -0.557 ± 0.27 | -0.232 ± 0.21
AATGTTGTTGATGCAACCATAAAGTGATATTTAATAATTATTTATAATCAGCAACTTAACCACAAAACAACCATATATTGATATATCACAAAACAACCATAAGTTGATATTTTTGTGAATCGAGTATTTCAGCAAAACTACTGCAGTAAGAA [AG] | 0.27 ± 0.094 | 0.00541 ± 0.045
AATGTTGTTGATGCAACCATAATGTGATATTTAATAATTATTTATAATCAGCAACTTAACCACAAAACAACCATATTTTGATATCTCACAAAACAACCATAACTTGATATTTTTGTGAATCGAGTATTTCAGCAAAACTACTGCAGTAAGAA [CC A23T A77T] | 0.131 ± 0.37 | -0.225 ± 0.1
AATGTTGTTGATGCACCCATAAATTGATATTGCATAATTATTTATAATCAGCAACTTAACCACAAAACACCCATAAATTGATAATTAACAAAACAACCATAAAATGATAATTATGTGAATCGAGTATTTCAGCAAAACTACTGCAGTAAGAA [TA A16C G24T T32G A33C A70C T76A T84A C87A T104A T110A T113A] | -2.03 ± 1.6 | -0.844 ± 0.55
AATGTTGTTGATGCAACCATAAAGTGATATTTAATAATTATTTATAATCAGCAACTTAACCACAAAAACCACATATATTGATATCTCACAAAACAACCATAAGTTGATATTTTTGTGAATCGAGTATTTCAGCAAAACTACTGCAGTAAGAA [CG C68A A69C A70C C71A] | -1.37 ± 0.95 | -1.67 ± 0.63

From the supplement of paper PMC10201428
